Source: patent US20150344570A1 (published 2015)

T1: human FcγRIIb extracellular domain with C-terminal His tag (human, UniProt P31994 43-217)
T1 construct: extracellular domain; also called FcgRIIb; 2b; not shown: His tag attached to the C terminus
T1 sequence (looked up): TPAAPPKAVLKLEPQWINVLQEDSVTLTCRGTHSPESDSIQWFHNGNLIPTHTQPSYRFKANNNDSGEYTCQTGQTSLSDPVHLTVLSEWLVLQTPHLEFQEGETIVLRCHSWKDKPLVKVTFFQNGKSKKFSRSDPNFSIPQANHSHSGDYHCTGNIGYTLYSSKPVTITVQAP

B1: GpH7-A5/GpH7-B3 variant A327_12R/GpL16-k0 (antibody, human IgG1, kappa)
heavy 1: not shown
heavy 2: not shown
light: DIVMTQSPLSLPVTPGEPASISCQASESLVHSNRNTYLHWYLQKPGQSPQLLIYKVSNRFSGVPDRFSGSGSGTDFTLKISRVEAEDVGVYYCSQNTHVPPTFGQGTKVEIERTVAAPSVFIFPPSDEQLKSGTASVVCLLNNFYPREAKVQWKVDNALQSGNSQESVTEQDSKDSTYSLSSTLTLSKADYEKHKVYACEVTHQGLSSPVTKSFNRGEC
notes: He Ab: mutation in one H chain only; also called He Ab
B2: GpH7-B3 variant A327_09D/GpL16-k0 (antibody, human IgG1, kappa)
heavy: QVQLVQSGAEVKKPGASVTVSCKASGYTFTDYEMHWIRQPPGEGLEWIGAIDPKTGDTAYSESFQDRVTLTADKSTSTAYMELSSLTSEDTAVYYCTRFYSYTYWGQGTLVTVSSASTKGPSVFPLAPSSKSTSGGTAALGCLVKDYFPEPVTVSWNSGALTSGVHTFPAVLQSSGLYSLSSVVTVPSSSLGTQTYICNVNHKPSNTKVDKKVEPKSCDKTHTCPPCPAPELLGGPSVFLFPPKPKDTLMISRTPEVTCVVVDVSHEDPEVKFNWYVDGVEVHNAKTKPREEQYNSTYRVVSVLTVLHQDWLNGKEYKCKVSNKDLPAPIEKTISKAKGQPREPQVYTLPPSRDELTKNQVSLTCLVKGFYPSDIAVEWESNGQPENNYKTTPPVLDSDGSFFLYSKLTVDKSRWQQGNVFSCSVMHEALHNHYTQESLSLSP
light: B1 light
notes: also called Ho Ab A327_09D
B3: GpH7-B3 variant A330_19Q/GpL16-k0 (antibody, human IgG1, kappa)
heavy: not shown
light: B1 light
notes: also called Ho Ab A330_19Q
B4: GpH7-B3 variant E333_04F/GpL16-k0 (antibody, human IgG1, kappa)
heavy: not shown
light: B1 light
notes: also called Ho Ab E333_04F
B5: GpH7-B3 variant E333_08L/GpL16-k0 (antibody, human IgG1, kappa)
heavy: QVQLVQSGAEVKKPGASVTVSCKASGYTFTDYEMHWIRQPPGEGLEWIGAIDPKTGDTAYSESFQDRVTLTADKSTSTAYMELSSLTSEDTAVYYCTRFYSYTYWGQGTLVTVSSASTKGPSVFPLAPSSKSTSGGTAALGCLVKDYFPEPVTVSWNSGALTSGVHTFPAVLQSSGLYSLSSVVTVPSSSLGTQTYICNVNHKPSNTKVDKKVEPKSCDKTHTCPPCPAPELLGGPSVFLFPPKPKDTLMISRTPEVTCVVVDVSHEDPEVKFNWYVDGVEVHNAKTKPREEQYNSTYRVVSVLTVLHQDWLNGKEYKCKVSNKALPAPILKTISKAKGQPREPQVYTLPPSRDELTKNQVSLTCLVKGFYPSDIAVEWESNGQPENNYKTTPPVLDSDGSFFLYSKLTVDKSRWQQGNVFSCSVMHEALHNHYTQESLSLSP
light: B1 light
notes: also called Ho Ab E333_08L
B6: GpH7-B3 variant S267_08L/GpL16-k0 (Ho Ab) (antibody, human IgG1, kappa)
heavy: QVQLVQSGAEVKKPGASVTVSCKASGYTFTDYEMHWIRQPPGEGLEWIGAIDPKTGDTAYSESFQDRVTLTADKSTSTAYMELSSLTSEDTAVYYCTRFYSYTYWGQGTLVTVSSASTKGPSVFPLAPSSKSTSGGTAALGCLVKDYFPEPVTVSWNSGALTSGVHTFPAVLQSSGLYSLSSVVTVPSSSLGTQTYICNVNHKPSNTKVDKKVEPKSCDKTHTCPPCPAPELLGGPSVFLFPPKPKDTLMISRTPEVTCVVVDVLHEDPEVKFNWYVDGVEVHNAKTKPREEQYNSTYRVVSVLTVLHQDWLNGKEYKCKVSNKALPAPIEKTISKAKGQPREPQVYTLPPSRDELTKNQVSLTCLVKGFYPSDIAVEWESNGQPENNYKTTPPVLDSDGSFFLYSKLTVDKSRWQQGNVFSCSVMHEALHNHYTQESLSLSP
light: B1 light
notes: Anti-glypican-3 IgG1; mutation in both H chains; also called S267L homodimerized antibody
B7: GpH7-B3 variant S267_09D/GpL16-k0 (Ho Ab) (antibody, human IgG1, kappa)
heavy: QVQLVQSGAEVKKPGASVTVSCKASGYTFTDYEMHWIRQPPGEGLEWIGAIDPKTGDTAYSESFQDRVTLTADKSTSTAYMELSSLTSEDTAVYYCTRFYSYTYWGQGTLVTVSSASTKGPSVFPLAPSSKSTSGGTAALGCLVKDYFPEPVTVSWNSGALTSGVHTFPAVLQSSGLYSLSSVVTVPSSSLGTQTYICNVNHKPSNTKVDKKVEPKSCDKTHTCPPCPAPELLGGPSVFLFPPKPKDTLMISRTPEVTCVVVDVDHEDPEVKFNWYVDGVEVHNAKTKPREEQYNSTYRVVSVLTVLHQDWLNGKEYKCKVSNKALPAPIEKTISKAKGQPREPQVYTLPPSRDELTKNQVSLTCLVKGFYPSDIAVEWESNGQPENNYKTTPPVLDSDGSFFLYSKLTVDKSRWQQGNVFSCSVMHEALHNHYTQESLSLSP
light: B1 light
notes: Anti-glypican-3 IgG1; mutation in both H chains; also called S267D homodimerized antibody
B8: GpH7-B3 variant S267_10E/GpL16-k0 (Ho Ab) (antibody, human IgG1, kappa)
heavy: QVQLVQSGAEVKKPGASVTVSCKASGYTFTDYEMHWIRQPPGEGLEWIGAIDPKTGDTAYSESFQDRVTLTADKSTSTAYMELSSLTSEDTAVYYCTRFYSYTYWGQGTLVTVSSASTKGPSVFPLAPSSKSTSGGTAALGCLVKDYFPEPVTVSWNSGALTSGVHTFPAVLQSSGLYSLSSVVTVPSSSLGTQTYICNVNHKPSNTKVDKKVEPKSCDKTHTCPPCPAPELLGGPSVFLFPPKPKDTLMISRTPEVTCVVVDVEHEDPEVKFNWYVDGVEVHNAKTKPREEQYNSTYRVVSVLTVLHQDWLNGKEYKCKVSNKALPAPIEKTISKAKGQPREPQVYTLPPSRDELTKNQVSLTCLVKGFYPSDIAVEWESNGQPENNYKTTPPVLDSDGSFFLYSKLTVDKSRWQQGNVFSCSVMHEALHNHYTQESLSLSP
light: B1 light
notes: Anti-glypican-3 IgG1; mutation in both H chains; also called S267E homodimerized antibody
B9: GpH7-B3 variant S267_14T/GpL16-k0 (Ho Ab) (antibody, human IgG1, kappa)
heavy: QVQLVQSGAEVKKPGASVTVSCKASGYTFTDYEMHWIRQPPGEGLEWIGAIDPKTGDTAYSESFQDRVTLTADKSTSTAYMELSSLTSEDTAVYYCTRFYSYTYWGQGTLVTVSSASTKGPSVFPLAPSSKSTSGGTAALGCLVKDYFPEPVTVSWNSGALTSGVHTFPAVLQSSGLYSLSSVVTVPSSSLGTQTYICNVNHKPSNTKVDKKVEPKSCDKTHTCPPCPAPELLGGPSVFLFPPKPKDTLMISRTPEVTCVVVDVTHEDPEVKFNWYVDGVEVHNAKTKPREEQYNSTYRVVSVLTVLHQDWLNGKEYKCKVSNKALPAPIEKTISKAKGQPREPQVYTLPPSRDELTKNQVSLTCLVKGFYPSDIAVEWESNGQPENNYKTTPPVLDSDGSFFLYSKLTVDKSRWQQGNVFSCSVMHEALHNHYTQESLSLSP
light: B1 light
notes: Anti-glypican-3 IgG1; mutation in both H chains; also called S267T homodimerized antibody
B10: GpH7-B3 variant S298_08L/GpL16-k0 (Ho Ab) (antibody, human IgG1, kappa)
heavy: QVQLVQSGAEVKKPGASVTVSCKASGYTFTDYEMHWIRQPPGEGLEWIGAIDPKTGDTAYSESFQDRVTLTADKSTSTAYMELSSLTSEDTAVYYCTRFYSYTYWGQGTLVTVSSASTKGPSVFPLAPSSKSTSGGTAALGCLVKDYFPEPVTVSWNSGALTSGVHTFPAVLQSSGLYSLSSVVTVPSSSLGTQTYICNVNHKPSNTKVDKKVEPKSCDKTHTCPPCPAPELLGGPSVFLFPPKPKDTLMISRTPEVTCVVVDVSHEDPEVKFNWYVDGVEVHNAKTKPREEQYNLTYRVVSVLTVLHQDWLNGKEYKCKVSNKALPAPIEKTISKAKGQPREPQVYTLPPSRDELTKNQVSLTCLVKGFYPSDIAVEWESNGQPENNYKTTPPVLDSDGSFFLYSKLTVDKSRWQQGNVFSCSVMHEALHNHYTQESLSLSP
light: B1 light
notes: Anti-glypican-3 IgG1; mutation in both H chains; also called S298L homodimerized antibody
B11: GpH7-B3 variant S337_09D/GpL16-k0 (Ho Ab) (antibody, human IgG1, kappa)
heavy: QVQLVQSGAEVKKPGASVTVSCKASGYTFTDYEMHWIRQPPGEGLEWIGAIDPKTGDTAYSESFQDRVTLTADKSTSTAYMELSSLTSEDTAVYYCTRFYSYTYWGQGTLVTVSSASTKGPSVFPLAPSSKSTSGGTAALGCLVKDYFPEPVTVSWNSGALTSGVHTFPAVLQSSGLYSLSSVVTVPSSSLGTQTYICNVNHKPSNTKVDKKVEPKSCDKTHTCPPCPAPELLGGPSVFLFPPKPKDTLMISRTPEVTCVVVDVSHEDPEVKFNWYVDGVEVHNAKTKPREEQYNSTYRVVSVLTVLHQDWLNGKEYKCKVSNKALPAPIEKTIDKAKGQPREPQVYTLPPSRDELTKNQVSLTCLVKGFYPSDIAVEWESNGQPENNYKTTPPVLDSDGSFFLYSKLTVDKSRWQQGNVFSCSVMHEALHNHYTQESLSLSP
light: B1 light
notes: Anti-glypican-3 IgG1; mutation in both H chains; also called S337D homodimerized antibody
B12: GpH7-B3 variant S337_10E/GpL16-k0 (Ho Ab) (antibody, human IgG1, kappa)
heavy: not shown
light: B1 light
notes: Anti-glypican-3 IgG1; mutation in both H chains; also called S337E homodimerized antibody
B13: GpH7-B3 variant S337_14T/GpL16-k0 (Ho Ab) (antibody, human IgG1, kappa)
heavy: not shown
light: B1 light
notes: Anti-glypican-3 IgG1; mutation in both H chains; also called S337T homodimerized antibody
B14: GpH7-B3 variant T335_04F/GpL16-k0 (Ho Ab) (antibody, human IgG1, kappa)
heavy: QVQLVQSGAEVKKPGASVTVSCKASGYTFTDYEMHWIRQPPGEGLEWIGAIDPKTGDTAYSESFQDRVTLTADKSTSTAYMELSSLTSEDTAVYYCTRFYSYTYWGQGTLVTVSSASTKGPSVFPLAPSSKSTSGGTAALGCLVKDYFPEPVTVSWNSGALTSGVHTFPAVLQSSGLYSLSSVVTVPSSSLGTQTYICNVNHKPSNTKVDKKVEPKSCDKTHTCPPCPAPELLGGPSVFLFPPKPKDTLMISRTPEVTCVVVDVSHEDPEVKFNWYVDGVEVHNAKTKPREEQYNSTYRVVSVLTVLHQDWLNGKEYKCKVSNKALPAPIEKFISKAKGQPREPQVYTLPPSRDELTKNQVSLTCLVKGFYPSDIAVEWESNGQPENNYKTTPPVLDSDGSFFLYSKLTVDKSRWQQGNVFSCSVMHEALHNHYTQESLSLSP
light: B1 light
notes: Anti-glypican-3 IgG1; mutation in both H chains; also called T335F homodimerized antibody
B15: GpH7-B3 variant T335_08L/GpL16-k0 (Ho Ab) (antibody, human IgG1, kappa)
heavy: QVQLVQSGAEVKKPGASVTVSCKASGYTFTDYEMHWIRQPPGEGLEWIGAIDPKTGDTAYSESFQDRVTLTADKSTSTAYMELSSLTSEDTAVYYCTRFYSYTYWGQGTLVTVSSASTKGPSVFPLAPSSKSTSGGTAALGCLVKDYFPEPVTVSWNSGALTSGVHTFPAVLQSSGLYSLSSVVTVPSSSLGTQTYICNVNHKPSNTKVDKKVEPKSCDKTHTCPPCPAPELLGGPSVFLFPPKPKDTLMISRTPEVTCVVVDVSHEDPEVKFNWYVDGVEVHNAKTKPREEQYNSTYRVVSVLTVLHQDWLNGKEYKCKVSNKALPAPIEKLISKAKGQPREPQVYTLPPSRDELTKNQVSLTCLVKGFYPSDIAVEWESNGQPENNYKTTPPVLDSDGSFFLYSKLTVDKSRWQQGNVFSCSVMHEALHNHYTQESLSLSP
light: B1 light
notes: Anti-glypican-3 IgG1; mutation in both H chains; also called T335L homodimerized antibody
B16: GpH7-B3 variant T335_09D/GpL16-k0 (Ho Ab) (antibody, human IgG1, kappa)
heavy: not shown
light: B1 light
notes: Anti-glypican-3 IgG1; mutation in both H chains; also called T335D homodimerized antibody
B17: GpH7-B3 variant Y300_19Q/GpL16-k0 (Ho Ab) (antibody, human IgG1, kappa)
heavy: not shown
light: B1 light
notes: Anti-glypican-3 IgG1; mutation in both H chains; also called Y300Q homodimerized antibody
B18: GpH7-A5/GpH7-B3 variant L328_03V/GpL16-k0 (He Ab) (antibody, human IgG1, kappa)
heavy 1: not shown
heavy 2: not shown
light: B1 light
notes: Anti-glypican-3 IgG1; mutation only in the GpH7-B3-derived H chain; also called L328V heterodimerized antibody
B19: GpH7-A5/GpH7-B3 variant K334_15Y/GpL16-k0 (He Ab) (antibody, human IgG1, kappa)
heavy 1: not shown
heavy 2: not shown
light: B1 light
notes: Anti-glypican-3 IgG1; mutation only in the GpH7-B3-derived H chain; also called K334Y heterodimerized antibody
B20: GpH7-A5/GpH7-B3 variant K334_16H/GpL16-k0 (He Ab) (antibody, human IgG1, kappa)
heavy 1: not shown
heavy 2: not shown
light: B1 light
notes: Anti-glypican-3 IgG1; mutation only in the GpH7-B3-derived H chain; also called K334H heterodimerized antibody
B21: GpH7-A5/GpH7-B3 variant K334_18N/GpL16-k0 (He Ab) (antibody, human IgG1, kappa)
heavy 1: not shown
heavy 2: not shown
light: B1 light
notes: Anti-glypican-3 IgG1; mutation only in the GpH7-B3-derived H chain; also called K334N heterodimerized antibody
B22: GpH7-A5/GpH7-B3 variant K334_19Q/GpL16-k0 (He Ab) (antibody, human IgG1, kappa)
heavy 1: not shown
heavy 2: not shown
light: B1 light
notes: Anti-glypican-3 IgG1; mutation only in the GpH7-B3-derived H chain; also called K334Q heterodimerized antibody
B23: GpH7-A5/GpH7-B3 variant L328_04F/GpL16-k0 (He Ab) (antibody, human IgG1, kappa)
heavy 1: not shown
heavy 2: not shown
light: B1 light
notes: Anti-glypican-3 IgG1; mutation only in the GpH7-B3-derived H chain; also called L328F heterodimerized antibody
B24: GpH7-A5/GpH7-B3 variant L328_06M/GpL16-k0 (He Ab) (antibody, human IgG1, kappa)
heavy 1: not shown
heavy 2: not shown
light: B1 light
notes: Anti-glypican-3 IgG1; mutation only in the GpH7-B3-derived H chain; also called L328M heterodimerized antibody
B25: GpH7-A5/GpH7-B3 variant L328_07I/GpL16-k0 (He Ab) (antibody, human IgG1, kappa)
heavy 1: not shown
heavy 2: not shown
light: B1 light
notes: Anti-glypican-3 IgG1; mutation only in the GpH7-B3-derived H chain; also called L328I heterodimerized antibody
B26: GpH7-A5/GpH7-B3 variant L328_14T/GpL16-k0 (He Ab) (antibody, human IgG1, kappa)
heavy 1: not shown
heavy 2: not shown
light: B1 light
notes: Anti-glypican-3 IgG1; mutation only in the GpH7-B3-derived H chain; also called L328T heterodimerized antibody

Target: T2, FcγRIa (human, UniProt P12314 16-292)
T2 construct: extracellular domain; Soluble extracellular domain with C-terminal His tag, used as analyte; also called FcgRI; CD64; not shown: His tag at the C terminus
Assay: SPR (Biacore), captured antibody, FcγR as analyte, relative binding
Experimental: The heterodimerized antibodies He Abs in which one of the H chains was introduced with an alteration were assayed for their binding activities to each activating FcγR and inhibitory FcγR according to the method described in Example 4. […] The activating FcγRs in FIGS. 26, 27, 28, and 29 are FcγRIa, FcγRIIa (R), FcγRIIa (H), and FcγRIIIa, respectively.
(§1) Analysis of interaction between objective antibody and the FcγR was carried out using Biacore T100 (GE Healthcare). HBS-EP+ (GE Healthcare) was used as the running buffer, and the measurement temperature was set to 25° C. Chips produced by immobilizing the antigen peptide by the amine coupling method to a Series S Sencor Chip CM5 (GE Healthcare), or alternatively, chips produced by allowing preliminarily biotinylated antigen peptides to interact with and immobilize onto a Series S Sensor Chip SA (certified) (GE Healthcare) were used. Antibodies of interest were captured onto an antigen peptide-immobilized chip, and allowed to interact to each FcγR diluted with running buffer. To regenerate and repeatedly use the chip, the antibodies captured on the chip were washed off by reacting 10 mM glycine-HCl, pH 1.5.

T2 sequence (P12314 16-292): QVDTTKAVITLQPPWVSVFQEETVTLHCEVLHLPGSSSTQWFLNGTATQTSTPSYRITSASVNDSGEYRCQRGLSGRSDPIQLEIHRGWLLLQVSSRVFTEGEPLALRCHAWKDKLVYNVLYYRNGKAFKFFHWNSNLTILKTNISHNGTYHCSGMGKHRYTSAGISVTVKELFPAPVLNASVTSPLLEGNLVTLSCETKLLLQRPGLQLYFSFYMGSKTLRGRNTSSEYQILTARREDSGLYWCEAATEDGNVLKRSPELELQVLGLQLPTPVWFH

| Binder | He/Con_1a |
| --- | --- |
| B1 | 86.7 % of GpH7-A5/GpH7-B3/GpL16-k0 |

Target: FcγRIIa H (human, UniProt P12318 34-217)
Assay: SPR Biacore, captured antibody, FcγR analyte; vs GpH7-B3/GpL16-k0 = 100

Chain of FcγRIIa H (P12318 34-217): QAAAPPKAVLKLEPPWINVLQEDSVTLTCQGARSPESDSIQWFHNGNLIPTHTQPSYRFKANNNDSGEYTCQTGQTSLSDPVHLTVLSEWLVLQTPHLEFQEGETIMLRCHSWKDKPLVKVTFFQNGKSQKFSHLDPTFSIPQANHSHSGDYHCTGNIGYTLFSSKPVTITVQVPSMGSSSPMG

| Binder | Ho/Con_2aH |
| --- | --- |
| B2 | 90.1 % of control |
| B3 | 99.2 % of control |
| B4 | 93.6 % of control |
| B5 | 96.5 % of control |

Target: T1, human FcγRIIb extracellular domain with …
Assay: SPR (Biacore T100), antibody captured on antigen peptide chip, FcγRIIb as analyte; relative binding
Experimental: as §1

| Binder | Ho/Con_2b | He/Con_2b |
| --- | --- | --- |
| B6 | 109 % of control GpH7-B3/GpL16-k0 (=100) |  |
| B7 | 327 % of control GpH7-B3/GpL16-k0 (=100) |  |
| B8 | 396 % of control GpH7-B3/GpL16-k0 (=100) |  |
| B9 | 106 % of control GpH7-B3/GpL16-k0 (=100) |  |
| B10 | 115 % of control GpH7-B3/GpL16-k0 (=100) |  |
| B11 | 116 % of control GpH7-B3/GpL16-k0 (=100) |  |
| B12 | 109 % of control GpH7-B3/GpL16-k0 (=100) |  |
| B13 | 110 % of control GpH7-B3/GpL16-k0 (=100) |  |
| B14 | 107 % of control GpH7-B3/GpL16-k0 (=100) |  |
| B15 | 106 % of control GpH7-B3/GpL16-k0 (=100) |  |
| B16 | 116 % of control GpH7-B3/GpL16-k0 (=100) |  |
| B17 | 124 % of control GpH7-B3/GpL16-k0 (=100) |  |
| B18 |  | 126 % of control GpH7-A5/GpH7-B3/GpL16-k0 (=100) |
| B19 |  | 109 % of control GpH7-A5/GpH7-B3/GpL16-k0 (=100) |
| B20 |  | 113 % of control GpH7-A5/GpH7-B3/GpL16-k0 (=100) |
| B21 |  | 115 % of control GpH7-A5/GpH7-B3/GpL16-k0 (=100) |
| B22 |  | 109 % of control GpH7-A5/GpH7-B3/GpL16-k0 (=100) |
| B23 |  | 219 % of control GpH7-A5/GpH7-B3/GpL16-k0 (=100) |
| B24 |  | 142 % of control GpH7-A5/GpH7-B3/GpL16-k0 (=100) |
| B25 |  | 160 % of control GpH7-A5/GpH7-B3/GpL16-k0 (=100) |
| B26 |  | 141 % of control GpH7-A5/GpH7-B3/GpL16-k0 (=100) |
